Assay [1] addresses T1, maltose-binding protein (MBP) (UniProt P0AEX9 27-396 = MBP). The assay can be described thus: yeast surface display: therMonobody on yeast, soluble target titrated 0-1000 nM, mean fluorescence, fit of the 1:1 binding model. From the text:
(§1) FIG. 6A-C. therMonobody library designs and generated clones. Amino acid sequences of therMonobodies generated from the loop-only library (a) and the side-and-loop library (b). The locations of diversified residues in the libraries are shown as spheres on the STOTEMP4 structure. “X” denotes a mixture of 30% Tyr, 13% Ser, 10% Gly, 5% Asp, 5% Leu, 5% Pro, 5% Trp and 2.5% each of all pther amino acids except for Cys and Met; “B”, a mixture of Ala, Ser, Thr, Asn, Asp and Tyr; “U”, a mixture of Ser, Thr, Asn and Tyr; “Z”, a mixture of Ala, Glu, Lys and Thr. (c) Binding measurements by yeast surface display of representative therMonobodies for each combination of library and target. The mean fluorescence intensities of yeast cells displaying therMonobodies are plotted as a function of the target concentration. The error indicated are the standard deviations from curve fitting of the 1:1 binding model.

The target in assay [2] is T1, maltose-binding protein (MBP). The assay can be described thus: yeast surface display titration, KD column of the drawn table [a].
Assay [3] shares this target. The assay can be described thus: yeast surface display titration, KD column of the drawn table [b].
Assay [4] concerns the target T2, yeast small ubiquitin-like modifier (ySUMO) (yeast, UniProt Q12306 1-98 = SUMO, limits assumed).
T2 construct: Target protein of the library selection; Construct not described
The assay can be described thus: yeast surface display: therMonobody on yeast, soluble target titrated 0-2000 nM, mean fluorescence, fit of the 1:1 binding model.
Excerpt: as §1

Assay [5] deals with T2, yeast small ubiquitin-like modifier …. The assay can be described thus: yeast surface display titration, KD column of the drawn table [a].
The target is the same in assay [6]. The assay can be described thus: yeast surface display titration, KD column of the drawn table [b].
The target of assay [7] is T3, Abl SH2 (UniProt P00519 127-217, limits assumed).
T3 construct: domain: SH2; Target protein of the library selection
T3 sequence (looked up): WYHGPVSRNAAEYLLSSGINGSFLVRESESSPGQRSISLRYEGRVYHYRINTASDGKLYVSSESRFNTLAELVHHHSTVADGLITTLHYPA
The assay can be described thus: yeast surface display: therMonobody on yeast, soluble target titrated 0-1000 nM, mean fluorescence, fit of the 1:1 binding model.
Excerpt: as §1

For assay [8], the target named is T3, Abl SH2. The assay can be described thus: yeast surface display titration, KD column of the drawn table [a].
In assay [9] the target is T3, Abl SH2. In words: yeast surface display titration, KD column of the drawn table [b].

T2 sequence (Q12306 1-98 limits assumed): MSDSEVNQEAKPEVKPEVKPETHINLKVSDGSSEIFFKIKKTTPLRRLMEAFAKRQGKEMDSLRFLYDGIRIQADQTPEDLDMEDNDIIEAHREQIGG

B1: MBPMbL08 (designed binder)
therMonobody (FN3 domain): SSSSVPQIASIASGPETITVKWYWSSYYWSPFYYYITYWSSSSQKVTINVGNVTSYTIKHLKPGVTYYIQIVPYWYQYFPRYGYPSDIISATPSSS
notes: loop-only library clone selected on MBP
Regarding B1, the Kd in assay [1] and in [2] was 12 nM throughout.

B2: MBPMbL17 (designed binder)
therMonobody (FN3 domain): SSSSVPQIASIAVGPETITVKWYRIPHAYYYYITYWSSSSQKVTINVGNVTSYTIKHLKPGVTYYIQIVPYYPSPWYLSYGYPSDIISATPSSS
notes: as for B1
For the molecule B2, the Kd – broadly, the free concentration of one partner at which half of the binding sites on the other are occupied at equilibrium, for simple one-to-one binding – in assay [2] came to 41 nM.

B3: MBPMbS12 (designed binder)
therMonobody (FN3 domain): SSSSVPQIASIASGPETITVKWYDTNASYYYISYWSGQSETVAIEVGNVTSYTIKHLKPGVTYYIQIVPYYPGYYPVHYVPSDIISATPSSS
notes: side-and-loop library clone selected on MBP
In [3], B3 registered an equilibrium dissociation constant (Kd) of 484 nM.

B4: SUMOMbL14 (designed binder)
therMonobody (FN3 domain): SSSSVPQIASIASGPETITVKWYDTNASYYYITYWSSSSQKVTINVGSPISYTIKHLKPGVTYYIQIVPYYTIGPDEYYYIPSDIISATPSSS
notes: loop-only library clone selected on ySUMO
For B4, the Kd in assay [4] and in assay [5] was 44 nM each time.

B5: SUMOMbS20 (designed binder)
therMonobody (FN3 domain): SSSSVPQIASIAVGPETITVKWYDTNASYYYIYYWSKHPKKVKIEVGNVTSYTIKHLKPGVTYYIQIVPFISYYDLYYSGDPSDIISATPSSS
notes: side-and-loop library clone selected on ySUMO
As for B5, in [6], binding was put at a Kd of 95 nM.

B6: AblSH2MbL04 (designed binder)
therMonobody (FN3 domain): SSSSVPQIASIASGPETITVKWYYYSIDVYYYITYWSSSSQKVTINVGPQTSYTIKHLKPGVTYYIQIVPYSFYSDSDYGYYPSDIISATPSSS
notes: loop-only library clone selected on Abl SH2
As for B6, the Kd in the assay with Abl SH2 [7] and with Abl SH2 [8] was 78 nM in each case.

B7: AblSH2MbS02 (designed binder)
therMonobody (FN3 domain): SSSSVPQIASIASGPETITVKWYDTNASFYYIYYWSTYPVTEEVEIKVGNVTSYTIKHLKPGVTYYIQIVPQYWYLGAGYPSDIISATPSSS
notes: side-and-loop library clone selected on Abl SH2
Regarding B7, the Kd with Abl SH2 [7] and with Abl SH2 [9] was 13 nM throughout.

B8: AblSH2MbS07 (designed binder)
therMonobody (FN3 domain): SSSSVPQIASIASGPETITVKWYDTNASYYYIYYWSSYPVTEEVEIKVGNVTSYTIKHLKPGVTYYIQIVPGYYSYPYYLSPSDIISATPSSS
notes: as for B7
B8: binding with Abl SH2 [9] was put at a Kd of 827 nM.

B9: MBPMbS01 (designed binder)
therMonobody (FN3 domain): SSSSVPQIASIASGPETITVKWYDTNASYYYISYWSADYDSEAVAIAVGNVTSYTIKHLKPGVTYYIQIVPYKANSYYPGYGYPSDIISATPSSS
notes: as for B3
Take B9: the Kd in assay [3] turned out to be 33 nM.

B10: SUMOMbS08 (designed binder)
therMonobody (FN3 domain): SSSSVPQIASIASGPETITVKWYDTNASYYYIYYWSLQYYREAVKIEVGNVTSYTIKHLKPGVTYYIQIVPFEEFGFGWYSGDPSDIISATPSSS
notes: as for B5
B10 displayed a Kd in assay [6] of 65 nM.

B11: MBPMbS09 (designed binder)
therMonobody (FN3 domain): SSSSVPQIASIASGPETITVKWYDTNASYYYISYWSYSTATVAIAVGNVTSYTIKHLKPGVTYYIQIVPYYGYRPYPSYGYPSDIISATPSSS
notes: as for B3
Turning to B11, the Kd in assay [1] and in assay [3] was 9 nM in each case.

B12: SUMOMbS34 (designed binder)
therMonobody (FN3 domain): SSSSVPQIASIASGPETITVKWYDTNASYYYIYYWSGPYYYKKVTITVGNVTSYTIKHLKPGVTYYIQIVPYHVHDWGYYYYPSDIISATPSSS
notes: as for B5
For the molecule B12, the Kd in [4] and in assay [6] was 20 nM each time.

The values above are taken from patent US20210079063A1 (UNIVERSITY OF CHICAGO, published 2021).
